Results reported in publication doi:10.1101/804138.
One block for each substance: values may come before it.

How the values were obtained:
[1] = target: His6-GapR1-69 (truncated protein lacking the entire Helix 3) (Caulobacter crescentus); assay: SEC + cross-linking
[2] = target: His6-GapR1-76 (truncated protein lacking only the hydrophobic patch of Helix 3) (Caulobacter crescentus); assay: SEC + cross-linking
[3] = target: His6-GapR1-89 (full-length WT GapR), purified (Caulobacter crescentus); assay: SEC + cross-linking
[4] = target: untagged GapR1-89 (Caulobacter crescentus)

- stoichiometry N [1]: 2
Substance: His6-GapR1-69 (truncated protein lacking the entire Helix 3) (domain or fragment)

- stoichiometry N [2]: 2
Substance: His6-GapR1-76 (truncated protein lacking only the hydrophobic patch of Helix 3) (domain or fragment)

- stoichiometry N [3]: 4
Substance: His6-GapR1-89 (full-length WT GapR), purified (natural protein)

- stoichiometry N [4]: 4
Substance: untagged GapR1-89 (natural protein)
